Biological target: LS-Rg, chimeric protein of the extracellular domain of human L-selectin joined to the Fc domain of a human G2 immunoglobulin (human) (UniProt P14151)
Assay: competition of unlabeled antibody with radio-labeled 2'-F RNA ligand LF1807 for purified LS-Rg

LS-Rg, chimeric protein of the extracellular domain of human L-selectin joined to the Fc domain of a human G2 immunoglobulin (human), sequence (P14151 39-332, change not shown): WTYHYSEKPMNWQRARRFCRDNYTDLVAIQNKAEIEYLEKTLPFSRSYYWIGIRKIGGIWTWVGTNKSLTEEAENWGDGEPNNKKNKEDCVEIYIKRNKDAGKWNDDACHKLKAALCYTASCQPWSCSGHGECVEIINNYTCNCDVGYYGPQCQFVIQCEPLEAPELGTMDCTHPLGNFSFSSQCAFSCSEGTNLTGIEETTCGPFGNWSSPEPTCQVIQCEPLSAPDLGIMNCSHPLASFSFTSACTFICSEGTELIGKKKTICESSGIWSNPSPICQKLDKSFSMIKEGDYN

concentration giving complete inhibition: 300 nM
Substance: DREG-56, blocking monoclonal anti-L-selectin antibody
